Data reported in patent US11447809B2, “Evolution of tRNA synthetases” (President and Fellows of Harvard College, priority 2017, dated 2022).
Positions count from the first letter of the chain named. Like-named read-outs stand apart in the source and are kept apart here.

Columns and labels:
[1] = tested on: sfGFP(Asn39TAG) expressed in BL21 star DE3 cells; assay: ESI-MS analysis of purified sfGFP(Asn39TAG) for amino acid incorporated; format: cell-based, E. coli
Experimental: Expression of His-tagged sfGFP was performed using the plasmids, cell strains, and antibiotic concentrations described in the methods for sfGFP assays. Saturated overnight cultures were prepared from single colonies of cotransformed cells, which were diluted 1,000-fold into 300 mL of LB media containing 1 mM ncAA where denoted and were grown while shaking at 230 rpm at 37° C. Once the cultures utilizing a pDB070 plasmid grew to a cell density of A600=0.3, AARS expression was induced by supplementing with anhydrotetracycline (ATc) to a final concentration of 200 ng/mL, and incubation was continued. […] Once cultures grew to a cell density of A600=0.5, sfGFP expression was induced by supplementation with a final concentration of 1 mM isopropyl-β-D-thiogalactosidase (IPTG) for cultures utilizing a pET28b(+) plasmid or a final concentration of 1 mM arabinose for cultures utilizing a pBAD plasmid. Incubation with shaking at 37° C. continued for an additional 16 h after induction of sfGFP expression. Cells were harvested by centrifugation at 5,000 g for 10 min at 4° C., and the resulting pellets were resuspended in B-PER II Bacterial Protein Extraction Reagent (Thermo Fisher Scientific) containing EDTA-free protease inhibitor cocktail (Roche). The soluble fraction of the cell lysates were diluted by an equal volume of equilibration buffer (20 mM Tris (pH 7.4), 10 mM imidazole, 300 mM NaCl) and were separately loaded onto a column containing 2 mL of HisPur Ni-NTA resin (Thermo Fisher Scientific) that had been pre-washed with two bed-volumes of equilibration buffer. […]
Purified protein samples were diluted to 10 μM in dialysis buffer lacking reducing agent or glycerol prior to analysis on an Agilent 6220 ESI-TOF mass spectrometer equipped with an Agilent 1260 HPLC. […] Data was analyzed using Agilent MassHunter Qualitative Analysis software (B.06.00, Build 6.0.633.0 with Bioconfirm). […]

tRNACUA^Tyr/Opt = assay: Aminoacylation assay of MjTyrRS variants (32P-labeled tRNA, nuclease P1/TLC); format: biochemical; conditions: for Relative catalytic efficiency: relative to p-NFRS with p-NF
Experimental: (§1) The genes of chPylRS variants and MjTyrRS variants were cloned into pET15a and transformed into BL21(DE3) (New England Biolabs) cells for expression. Cells were grown in 500 mL of LB media supplemented with 100 m/mL ampicillin at 37° C. to an A600 of 0.6-0.8, and protein expression was induced by addition of 0.5 mM IPTG (chPylRS variants) or 1 mM IPTG (MjTyrRS variants). Cells were incubated at 30° C. for an additional 6 h (chPylRS variants) or 4 h (MjTyrRS variants) and harvested by centrifugation at 5,000 g for 10 min at 4° C. The cell pellet was resuspended in 15 mL of lysis buffer (50 mM Tris (pH 7.5), 300 mM NaCl, 20 mM imidazole), and cells were lysed by sonication. The crude extract was centrifuged at 20,000 g for 30 min at 4° C. The soluble fraction was loaded onto a column containing 2 mL of Ni-NTA resin (Qiagen) previously equilibrated with 20 mL of lysis buffer. The column was washed with 20 mL of lysis buffer. The bound protein was then eluted with 2 mL of 50 mM Tris (pH 7.5), 300 mM NaCl, 300 mM imidazole. The purified protein was dialyzed with 50 mM HEPES-KOH (pH 7.5), 50 mM KCl, 1 mM DTT and 50% glycerol and stored at −80° C. for further studies.
(§2) Template plasmid containing the tRNA^Pyl or tRNACUA^Tyr/Opt gene was purified with the plasmid maxi kit (Qiagen). The plasmid containing tRNA^Pyl (100 μg) was digested with BstNI (New England Biolabs). The tRNACUA^Tyr/Opt gene was amplified by PCR. The BstNI digested template DNA or PCR product was purified by phenol chloroform extraction, followed by ethanol precipitation and dissolved in double distilled water. A His-tagged T7 RNA polymerase was purified over a column of Ni-NTA resin according to manufacturer's instructions (Qiagen). The transcription reaction (40 mM Tris (pH 8); 4 mM each of UTP, CTP, GTP, and ATP at pH 7.0; 22 mM MgCl2; 2 mM spermidine; 10 mM DTT; 6 μg pyrophosphatase (Roche Applied Science); 60 m/mL of DNA template, approximately 0.2 mg/mL T7 RNA polymerase) was performed in 10 mL reactions overnight at 37° C. The tRNA was purified on 12% denaturing polyacrylamide gel containing 8 M urea and TBE buffer (90 mM Tris, 90 mM boric acid, 2 mM EDTA). UV shadowing was used to illuminate the pure tRNA band, which was excised and extracted three times with 1M sodium acetate pH 5.3 at 4° C. The tRNA extractions were then ethanol precipitated, dissolved in RNase-free distilled water, pooled, and finally desalted using a Biospin 30 column (BioRad). The tRNA was refolded by heating to 100° C. for 5 min and slow cooling to room temperature. At 65° C., MgCl2 was added to a final concentration of 10 mM to aid folding. A His-tagged CCA adding enzyme was purified over column of Ni-NTA resin according to manufacturer's instructions (Qiagen). 16 μM refolded tRNA in 50 mM Tris (pH 8.0), 20 mM MgCl2, 5 mM DTT, and 50 μM NaPPi was incubated at room temperature for 1 h with approximately 0.2 mg/mL CCA-adding enzyme and 1.6 μCi/μL of (α-^32P)-labeled ATP (PerkinElmer). The sample was phenol/chloroform extracted and then passed over a Bio-spin 30 column (Bio-Rad) to remove excess ATP.
(§3) A 20 μL aminoacylation reaction contained the following components for chPylRS variants: 50 mM HEPES-KOH (pH 7.2), 25 mM KCl, 10 mM MgCl2, 5 mM DTT, 10 mM ATP, 25 μg/mL pyrophosphatase (Roche Applied Science), 10 mM amino acids, 500 nM PylRS variants, 5 μM unlabeled tRNA^Pyl, and 100 nM ^32P-labeled tRNA^Pyl. A 20 μL aminoacylation reaction contained the following components for MjTyrRS variants: 50 mM Tris-HCl (pH 7.5), 1 mM DTT, 10 mM MgCl2, 10 mM ATP, 20 μM unlabeled tRNACUA^Tyr/Opt, 3 μM ^32P-labeled tRNACUA^Tyr/Opt, 2 μM MjTyrRS variants. […]

tRNA^Pyl = assay: Aminoacylation assay of chPylRS variants (32P-labeled tRNA, nuclease P1/TLC); format: biochemical
Experimental: as §1, §2, §3

B1: p-NFRS: previously evolved MjTyrRS variant charging p-nitro-L-phenylalanine; SEQ ID NO: 18, 22 (protein)
chain: MDEFEMIKRNTSEIISEEELREVLKKDEKSALIGFEPSGKIHLGHYLQIKKMIDLQNAGFDIIILLADLHAYLNQKGELDEIRKIGDYNKKVFEAMGLKAKYVYGSSFQLDKDYTLNVYRLALKTTLKRARRSMELIAREDENPKVAEVIYPIMQVNPLNYEGVDVAVGGMEQRKIHMLARELLPKKVVCIHNPVLTGLDGEGKMSSSKGNFIAVDDSPEEIRAKIKKAYCPAGVVEGNPIMEIAKYFLEYPLTIKRPEKFGGDLTVNSYEELESLFKNKELHPMRLKNAVAEELIKILEPIRKRL
[1]; LB media, 1 mM p-IF
  charging of p-IF: efficiently charges p-iodo-L-phenylalanine (p-IF)
[1]; overnight expression in LB media, presence or absence of 1 mM p-NF
  charging of Phe: efficiently charges Phe
tRNACUA^Tyr/Opt; amino acid Phe
  kcat: 0.14 ± 0.003 s^−1 × 10^−3
  Relative catalytic efficiency: 2.3
tRNACUA^Tyr/Opt; amino acid Phe, read-out: KM^ncAA
  Km: 160 ± 30 µM
tRNACUA^Tyr/Opt; ncAA p-IF
  Km: 2230 ± 460 µM
  kcat: 0.87 ± 0.11 s^−1 × 10^−3
  Relative catalytic efficiency: 1.03
tRNACUA^Tyr/Opt; ncAA p-NF
  Km: 3680 ± 290 µM
  kcat: 1.40 ± 0.05 s^−1 × 10^−3
  Relative catalytic efficiency: 1.00

B2: p-IFRS: previously reported MjTyrRS variant evolved to charge p-IF; His160; SEQ ID NO: 19, 23 (protein)
chain: B1 chain with N160H
[1]; LB media supplemented with both 1 mM p-NF and 1 mM p-IF
  selectivity of incorporation into sfGFP: selectively incorporates p-IF

B3: chPylRS: chimera of residues 1-149 of MbPylRS and residues 185-454 of MmPylRS; progenitor enzyme (SEQ ID NO: 5) (protein)
chain: MDKKPLDVLISATGLWMSRTGTLHKIKHYEVSRSKIYIEMACGDHLVVNNSRSCRTARAFRHHKYRKTCKRCRVSDEDINNFLTRSTEGKTSVKVKVVSAPKVKKAMPKSVSRAPKPLENPVSAKASTDTSRSVPSPAKSTPNSPVPTSASAPALTKSQTDRLEVLLNPKDEISLNSGKPFRELESELLSRRKKDLQQIYAEERENYLGKLEREITRFFVDRGFLEIKSPILIPLEYIERMGIDNDTELSKQIFRVDKNFCLRPMLAPNLYNYLRKLDRALPDPIKIFEIGPCYRKESDGKEHLEEFTMLNFCQMGSGCTRENLESIITDFLNHLGIDFKIVGDSCMVYGDTLDVMHGDLELSSAVVGPIPLDREWGIDKPWIGAGFGLERLLKVKHDFKNIKRAARSESYYNGISTNL
tRNA^Pyl; BocK substrate, Table 7
  kcat: 11.88 ± 0.18 s^−1 × 10^−3
tRNA^Pyl; BocK substrate, Table 7, read-out: KM^ATP
  Km: 2.54 ± 0.16 µM
tRNA^Pyl; BocK substrate, Table 7, read-out: KM^tRNA
  Km: 0.26 ± 0.07 µM
tRNA^Pyl; L-pyrrolysine substrate, Table 8
  kcat: 33.24 ± 2.74 s^−1 × 10^−3
tRNA^Pyl; L-pyrrolysine substrate, Table 8, read-out: KM^Pyl
  Km: 21.03 ± 0.15 µM
tRNA^Pyl; Table 7, read-out: KM^bocK
  Km: 1030 ± 50 µM
tRNA^Pyl; kcat/KM^tRNA relative to chPylRS
  Relative catalytic efficiency: 1
